# Article PMC2669960 (The EMBO Journal, 2009)
# Where two headings read alike, the source gives them in different places.
# T1: GST–Ska1 (full length), tag cleaved (human, UniProt Q96BD8 1-255)
# T1 sequence: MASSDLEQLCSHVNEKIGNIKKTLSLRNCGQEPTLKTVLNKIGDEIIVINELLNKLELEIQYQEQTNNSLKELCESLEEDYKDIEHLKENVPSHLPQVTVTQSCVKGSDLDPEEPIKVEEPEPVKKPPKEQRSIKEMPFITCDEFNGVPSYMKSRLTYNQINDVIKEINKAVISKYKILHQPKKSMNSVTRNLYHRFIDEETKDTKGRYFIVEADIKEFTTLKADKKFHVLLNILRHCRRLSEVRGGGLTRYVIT
# T2: His–Ska1 (full length), tag cleaved (human, UniProt Q96BD8 1-255)
# T2 sequence: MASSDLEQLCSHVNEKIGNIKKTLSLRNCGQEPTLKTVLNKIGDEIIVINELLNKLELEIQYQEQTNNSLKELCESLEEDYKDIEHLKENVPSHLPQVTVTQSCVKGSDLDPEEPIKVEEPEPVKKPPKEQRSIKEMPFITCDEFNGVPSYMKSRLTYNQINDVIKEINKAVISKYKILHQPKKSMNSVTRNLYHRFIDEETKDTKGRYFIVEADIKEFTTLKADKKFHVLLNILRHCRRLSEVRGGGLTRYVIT
# B1: His–Ska1 (N), tag cleaved (domain or fragment)
# chain: MASSDLEQLCSHVNEKIGNIKKTLSLRNCGQEPTLKTVLNKIGDEIIVINELLNKLELEIQYQEQTNNSLKELCESLEEDYKDIEHLKENVPSHLPQVTVTQSCVKGSDLDPEEPIKVEEPEPVKKPPKE
# B2: His–Ska3 (N), tag cleaved (domain or fragment)
# chain: MDPIRSFCGKLRSLASTLDCETARLQRALDGEESDFEDYPMRILYDLHSEVQTLKDDVNILLDKARLENQEGIDFIKATKVLMEKNSMDIMKIREYFQKYGYSPRVKKNSVHEQEAINSDPELSNCENFQKTDVKDDLSDPPVASSCISEKSPRSP
# What was measured:
# Test in all cases: co-purification
# [1] = target: B2
# [2] = target: T1, GST–Ska1 (full length), tag cleaved
# [3] = target: B2; remark: listed apart in the source
# [4] = target: B1
# [5] = target: T2, His–Ska1 (full length), tag cleaved
# [6] = target: T2, His–Ska1 (full length), tag cleaved; remark: listed apart in the source
# [7] = target: T1, GST–Ska1 (full length), tag cleaved; remark: listed apart in the source
binder,measurement,setting,value
B1,binding result,[1],binds
untagged Ska2 (natural protein) MEAEVDKLELMFQKAESDLDYIQYRLEYEIKTNHPDSASEKNPVTLLKELSVIKSRYQTLYARFKPVAVEQKESKSRICATVKKTMNMIQKLQKQTDLELSPLTKEEKTAAEQFKFHMPDL,binding result,[2],binds
"GST–Ska2 (full length), tag cleaved (natural protein) MEAEVDKLELMFQKAESDLDYIQYRLEYEIKTNHPDSASEKNPVTLLKELSVIKSRYQTLYARFKPVAVEQKESKSRICATVKKTMNMIQKLQKQTDLELSPLTKEEKTAAEQFKFHMPDL",binding result,[3],binds
same,binding result,[4],binds
same,binding result,[5],binds
B2,binding result,[6],binds
same,binding result,[7],binds
